Measurements from US20260209347A1 (BIORAY PHARMACEUTICAL, published 2026).
Where two headings read alike, the source gives them in different places.

Columns and labels:
[1] = target: human NKG2A/CD94 on cells (CHOK1-hNKG2A/CD94) (human, UniProt P26715 1-233; Q13241 1-179); assay: cell-based or functional assay
[2] = target: T1, human NKG2C/CD94 on cells (CHOK1-hNKG2C/CD94) (human, UniProt P26717 1-231; Q13241 1-179); assay: FACS on CHOK1-hNKG2C/CD94 cells
T1 construct: whole, on cells; also called human NKG2C overexpressing cells; human NKG2C overexpressing cell line
Method: Human NKG2A overexpressing cells (CHOK1-hNKG2A/CD94), cyno NKG2A overexpressing cells (CHOK1-cynoNKG2A/CD94), and human NKG2C overexpressing cells (CHOK1-hNKG2C/CD94) were digested with TrypLE (purchased from Gibco). Cells were collected by centrifugation, then resuspended to 2E6/mL with FACS buffer (PBS+2% FBS). The cells were added to a 96-well cell plate at 100 μL per well, and the supernatant was discarded after centrifugation. The antibody was gradiently diluted with FACS buffer (initial concentration of 200 nM, 5-fold dilution, including point 0, a total of 10 concentration points), added to the cells at 100 μL/well, mixed, and incubated at 4° C. for 1 hour. The incubated cells were centrifuged at 300 g for 5 min and washed twice with FACS buffer. Secondary antibody, anti-human IgG fluorescent secondary antibody 488 (purchased from Thermofisher A-11013), was added, incubated at 4° C. for one hour, then the cells were washed twice with FACS buffer, resuspended in PBS and analyzed by FACS instrument.

[3] = target: human NKG2A/CD94 on cells (CHOK1-hNKG2A/CD94) (human) (UniProt P26715); assay: cell-based or functional assay
[4] = target: human NKG2A/CD94 on cells (CHOK1-hNKG2A/CD94) (human) (UniProt P26715); assay: cell-based or functional assay; remark: listed apart in the source
[5] = target: human NKG2A/CD94 on cells (CHOK1-hNKG2A/CD94) (human) (UniProt P26715); assay: FACS on human NKG2A overexpressing cell line

Chain of human NKG2A/CD94 on cells (CHOK1-hNKG2A/CD94) (P26715 whole entry, chain 1 of 2): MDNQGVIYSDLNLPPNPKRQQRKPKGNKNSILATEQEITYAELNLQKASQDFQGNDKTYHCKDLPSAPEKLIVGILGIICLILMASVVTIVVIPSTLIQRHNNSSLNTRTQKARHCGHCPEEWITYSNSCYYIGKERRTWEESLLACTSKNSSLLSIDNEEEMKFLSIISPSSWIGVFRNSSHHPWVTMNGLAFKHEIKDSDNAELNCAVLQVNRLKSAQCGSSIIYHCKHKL
Chain of human NKG2A/CD94 on cells (CHOK1-hNKG2A/CD94) (Q13241 whole entry, chain 2 of 2): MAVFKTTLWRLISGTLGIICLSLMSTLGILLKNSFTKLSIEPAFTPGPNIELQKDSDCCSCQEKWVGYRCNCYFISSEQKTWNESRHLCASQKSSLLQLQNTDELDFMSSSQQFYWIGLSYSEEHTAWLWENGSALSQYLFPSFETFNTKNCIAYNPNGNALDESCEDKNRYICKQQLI
Chain of human NKG2A/CD94 on cells (CHOK1-hNKG2A/CD94) (human) (P26715 whole entry, chain 1 of 2): as the sequence (P26715 whole entry, chain 1 of 2) above
Chain of human NKG2A/CD94 on cells (CHOK1-hNKG2A/CD94) (human) (Q13241 whole entry, chain 2 of 2, further chain): as the sequence (Q13241 whole entry, chain 2 of 2) above
T1 sequence (P26717 whole entry, chain 1 of 2): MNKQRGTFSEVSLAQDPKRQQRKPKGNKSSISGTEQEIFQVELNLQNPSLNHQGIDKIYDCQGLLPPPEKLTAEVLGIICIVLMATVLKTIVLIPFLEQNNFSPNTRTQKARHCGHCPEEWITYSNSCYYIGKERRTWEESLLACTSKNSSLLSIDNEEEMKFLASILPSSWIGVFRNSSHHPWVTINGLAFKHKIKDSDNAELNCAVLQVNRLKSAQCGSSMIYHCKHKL
T1 sequence (Q13241 whole entry, chain 2 of 2): as the sequence (Q13241 whole entry, chain 2 of 2) above

Binder	IC50 (nM), killing of LCL721.221 target cells by NK92 cells [1] [nM]	further results
hu-43VH-21/VL-11 (antibody, human IgG4 S228P, kappa, V domains shown) VH: QVQLVQSGAEVKKPGASVKVSCKASGFNIQNTYIHWVRQAPGQGLEWMGRIDPASGSTEYAPKFQGRVTMTADTSINTGYMELSRLRSDDTAVYYCARYGNFLYYYSMDYWGQGTLVTVSS VL: DIVMTQSPLSLPVTPGEPASISCRSNKSLLHSNGNTYLYWFLQKPGQSPQLLIYRMSNLASGVPDRFSGSGSGTDFTLKISRVEAEDVGVYYCMQHLENPYTFGQGTKLEIKR	0.52	–
cAb-43 (antibody, human IgG4 S228P, kappa, V domains shown, human-mouse chimeric antibody, human IgG4 constant region; also called antibody number 43; NKG2A chimeric antibody) VH: EVQLQQSVAELVRPGASVKLSCTASGFNIQNTYIHWVKQRPEQGLEWIGRIDPASGSTEYAPKFQGKATITADTSSNSGYLQLSSLTSEDTAIYYCARYGNFLYYYSMDYWGQGTSVTVSA VL: DIVMTQAAPSVPVTPGESVSISCRSNKSLLHSNGNTYLYWFLQRPGQSPQLLIYRMSNLASGVPDRFSGSGSGTAFTLRISRVEAEDVGVYYCMQHLENPYTFGGGTKLEIKR	0.28	binding result [2]: no binding (tested: initial concentration of 200 nM)
hu-43VH-11/VL-31 (antibody, human IgG4 S228P, kappa, V domains shown) VH: QVQLVQSGAEVKKPGASVKVSCKASGFNIQNTYIHWVRQAPGQGLEWMGRIDPASGSTEYAPKFQGRVTMTADTSTNTGYMELSSLRSEDTAVYYCARYGNFLYYYSMDYWGQGTLVTVSS VL: DIVMTQTPLSLSVTPGQPASISCRSNKSLLHSNGNTYLYWFLQKPGQPPQLLIYRMSNLASGVPDRFSGSGSGTDFTLKISRVEAEDVGVYYCMQHLENPYTFGQGTKLEIRT	0.45	–
hu-43VH-11/VL-21 (antibody, human IgG4 S228P, kappa, V domains shown) VH: QVQLVQSGAEVKKPGASVKVSCKASGFNIQNTYIHWVRQAPGQGLEWMGRIDPASGSTEYAPKFQGRVTMTADTSTNTGYMELSSLRSEDTAVYYCARYGNFLYYYSMDYWGQGTLVTVSS VL: DIVMTQSPLSLPVTLGQPASISCRSNKSLLHSNGNTYLYWFQQRPGQSPRLLIYRMSNLASGVPDRFSGSGSGTDFTLKISRVEAEDVGVYYCMQHLENPYTFGQGTKLEIKR	0.33	–
NKG2A positive control antibody Z270 (Monalizumab) (antibody, INN chains, looked up, V domains shown) VH: QVQLVQSGAEVKKPGASVKVSCKASGYTFTSYWMNWVRQAPGQGLEWMGRIDPYDSETHYAQKLQGRVTMTTDTSTSTAYMELRSLRSDDTAVYYCARGGYDFDVGTLYWFFDVWGQGTTVTVSS VL: DIQMTQSPSSLSASVGDRVTITCRASENIYSYLAWYQQKPGKAPKLLIYNAKTLAEGVPSRFSGSGSGTDFTLTISSLQPEDFATYYCQHHYGTPRTFGGGTKVEIK	–	IC50 (nM), killing of LCL721.221 target cells by NK92 cells [3]: 1.11 nM; IC50 (nM), killing of LCL721.221 target cells by NK92 cells [4]: 0.57 nM; Maximum MFI [5]: 16100 MFI
